± gives the uncertainty stated by the source.
B1: Pituitary-specific positive transcription factor 1, residues 130 to 198; numbered along this chain, P28069 (parent)
chain: RELEKFANEFKVRRIKLGYTQTNVGEALAAVHGSEFSQTTICRFENLQLSFKNACKLKAILSKWLEEAE

Variants of: B1
Assay: abundance fitness (aPCA) (normalised: wild type 0, dead -1); higher = more abundant; growth selection in yeast, the domain comes from the species named
Settings: Homo sapiens

Variant | abundance fitness
S37Q | -0.736 ± 0.14
S37D | 0.199 ± 0.059
S37R | -0.743 ± 0.066
S37V | -0.833 ± 0.095
S37H | -0.689 ± 0.15
I41N | -0.88 ± 0.16
I41D | -0.758 ± 0.37
I41W | -0.502 ± 0.15
I41K | -0.842 ± 0.33
I41H | -0.56 ± 0.26
I41T | -0.892 ± 0.39
K11L | -0.973 ± 0.2
K11F | -1.02 ± 0.39
K11Q | -0.507 ± 0.064
K11D | -1.02 ± 0.43
K11S | -0.65 ± 0.14
K11C | -0.795 ± 0.2
K16D | -0.665 ± 0.21
K16F | -0.909 ± 0.21
K16S | -0.365 ± 0.078
K16N | -0.122 ± 0.076
I60F | -0.725 ± 0.22
I60A | -0.281 ± 0.073
I60C | -0.365 ± 0.1

Variant | abundance fitness
I60M | -0.239 ± 0.079
I60Q | -0.559 ± 0.18
I60V | -0.024 ± 0.084
G25C | 0.005 ± 0.059
G25A | 0.396 ± 0.057
G25K | -0.797 ± 0.22
V24N | -0.581 ± 0.22
V24F | -0.92 ± 0.22
V24T | -0.625 ± 0.34
V24L | -0.361 ± 0.074
V24I | -0.545 ± 0.074
L49C | -0.208 ± 0.067
L49P | -0.687 ± 0.35
L49I | -0.262 ± 0.064
L49D | -0.847 ± 0.31
L49Y | -0.477 ± 0.087
L65N | -0.955 ± 0.21
L65W | -0.719 ± 0.12
L65V | -0.38 ± 0.059
L65Y | -0.833 ± 0.18
L65G | -0.791 ± 0.14
L65E | -0.779 ± 0.16
L65T | -0.935 ± 0.18
W64T | -0.684 ± 0.11

Variant | abundance fitness
W64V | -0.966 ± 0.25
K5W | -0.596 ± 0.063
K5Y | -0.236 ± 0.096
K5S | -0.278 ± 0.044
K5E | -0.062 ± 0.049
K5H | -0.135 ± 0.065
T20C | -0.871 ± 0.21
T20E | -0.536 ± 0.22
T20H | -1.05 ± 0.43
T20Y | -1.17 ± 0.45
T20R | -0.941 ± 0.13
T20V | -0.789 ± 0.092
T20S | -0.044 ± 0.056
T20W | -1.12 ± 0.25
V12W | -0.56 ± 0.22
V12A | 0.173 ± 0.06
V12Y | -0.295 ± 0.16
V12F | -0.318 ± 0.15
F10K | -0.721 ± 0.49
F10A | -0.803 ± 0.17
F10W | -0.961 ± 0.24
F10C | -0.923 ± 0.39
F10N | -0.59 ± 0.31
S34W | -0.562 ± 0.39

Variant | abundance fitness
S34T | -0.139 ± 0.097
S34M | -0.188 ± 0.097
S34L | -0.253 ± 0.057
S34E | 0.019 ± 0.055
S34D | -0.015 ± 0.14
S34F | -0.387 ± 0.13
S34N | 0.107 ± 0.15
L17K | -0.804 ± 0.26
L17V | -0.785 ± 0.12
L17I | -0.709 ± 0.5
L17Q | -0.821 ± 0.26
L17W | -0.638 ± 0.11
L17Y | -0.858 ± 0.47
L17N | -0.729 ± 0.23
E66D | -0.037 ± 0.085
E66V | -0.123 ± 0.054
E66G | -0.373 ± 0.07
E66S | -0.335 ± 0.078
E66A | -0.054 ± 0.069
N46M | -0.492 ± 0.12
N46L | -0.493 ± 0.089
N46G | -0.311 ± 0.094
N46S | -0.085 ± 0.089
E26N | -0.083 ± 0.1

Variant | abundance fitness
E26C | -0.476 ± 0.21
E26F | -0.849 ± 0.29
T39D | 0.118 ± 0.16
T39S | -0.065 ± 0.077
T39L | -0.242 ± 0.074
R13D | -0.803 ± 0.36
R13N | -0.618 ± 0.44
R13E | -0.976 ± 0.3
L61K | -0.572 ± 0.16
L61C | -0.379 ± 0.19
N8K | 0.155 ± 0.12
N8W | -0.414 ± 0.097
N8C | -0.496 ± 0.16
N8A | 0.133 ± 0.064
N8F | -0.262 ± 0.073
L28T | -0.226 ± 0.098
L28R | -0.554 ± 0.068
L28D | -0.162 ± 0.11
L28E | -0.718 ± 0.21
L28M | -0.824 ± 0.27
L28S | -0.732 ± 0.16
C42Y | -0.243 ± 0.12
C42K | 0.148 ± 0.14
C42P | -0.761 ± 0.092

Variant | abundance fitness
R14H | -0.253 ± 0.22
R14T | -0.878 ± 0.15
R14Q | -0.74 ± 0.35
R14E | -0.952 ± 0.37
A29L | -0.829 ± 0.16
A29W | -0.932 ± 0.27
A29R | -0.127 ± 0.063
A29F | -0.509 ± 0.12
A29I | -0.492 ± 0.16
A29H | -0.079 ± 0.2
A29G | -0.416 ± 0.13
A7H | -0.973 ± 0.34
A7T | -0.356 ± 0.17
A7Q | -0.944 ± 0.46
A7I | 0.162 ± 0.11
S50N | 0.022 ± 0.092
S50W | -0.126 ± 0.092
S50M | -0.766 ± 0.23
G33E | -0.856 ± 0.16
G33H | -0.536 ± 0.31
G33D | -0.721 ± 0.16
G33C | -0.791 ± 0.11
G33S | -0.75 ± 0.07
G33M | -0.792 ± 0.14

Variant | abundance fitness
N23E | 0.352 ± 0.073
N23P | -0.992 ± 0.39
N23M | 0.392 ± 0.071
N23Q | 0.347 ± 0.18
E4F | -0.316 ± 0.087
E4G | -0.848 ± 0.35
E4Q | -0.245 ± 0.27
E4A | 0.043 ± 0.084
E4I | -0.145 ± 0.069
E4T | -0.249 ± 0.074
E4S | -0.157 ± 0.079
K58N | -0.619 ± 0.11
K58W | -0.342 ± 0.11
K58P | -0.708 ± 0.17
K63F | -0.799 ± 0.16
K63H | 0.039 ± 0.2
K63Q | -0.157 ± 0.11
K63S | -0.069 ± 0.046
K63A | 0.025 ± 0.061
K63V | -0.155 ± 0.072
K63E | 0.077 ± 0.065
K63G | -0.153 ± 0.059
K63Y | -0.508 ± 0.16
